Results: US20170088605A1 (Novartis, published 2017)
Read-outs that look alike come from different tables or passages of the source.

Assays:
[1] = target: T1, BKV serotype I VLP (BK virus serotype I, UniProt P03088 1-362)
T1 chain: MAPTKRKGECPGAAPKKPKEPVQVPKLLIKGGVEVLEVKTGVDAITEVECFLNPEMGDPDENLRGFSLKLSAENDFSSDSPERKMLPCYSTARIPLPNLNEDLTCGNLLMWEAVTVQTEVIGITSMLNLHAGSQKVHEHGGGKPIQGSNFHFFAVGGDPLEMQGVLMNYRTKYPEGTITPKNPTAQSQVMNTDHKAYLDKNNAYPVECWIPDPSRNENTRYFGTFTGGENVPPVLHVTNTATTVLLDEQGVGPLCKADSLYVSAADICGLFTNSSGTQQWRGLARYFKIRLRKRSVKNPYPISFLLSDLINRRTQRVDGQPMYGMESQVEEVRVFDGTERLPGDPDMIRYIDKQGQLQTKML

[2] = target: T2, BKV serotype I infectious virus (VP1) (BK virus serotype I, UniProt P03088 1-362); assay: cell-based or functional assay
T2 sequence (looked up): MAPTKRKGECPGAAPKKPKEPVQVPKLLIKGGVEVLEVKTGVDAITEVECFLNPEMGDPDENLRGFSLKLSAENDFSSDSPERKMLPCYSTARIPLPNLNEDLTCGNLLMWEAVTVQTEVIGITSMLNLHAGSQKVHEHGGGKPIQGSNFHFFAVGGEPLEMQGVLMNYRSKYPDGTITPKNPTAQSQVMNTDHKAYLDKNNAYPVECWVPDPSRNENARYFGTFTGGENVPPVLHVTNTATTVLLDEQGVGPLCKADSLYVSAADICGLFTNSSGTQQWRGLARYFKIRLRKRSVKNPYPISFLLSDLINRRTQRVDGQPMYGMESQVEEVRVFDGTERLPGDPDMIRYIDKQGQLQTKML

[3] = target: T3, BKV serotype I VP1 pentamer (BK virus serotype I, UniProt P03088 30-297); assay: SPR, antibody captured on Protein A
T3 construct: also called serotype I pentamers; BKV-VP1 serotype I pentameric protein

[4] = target: BKV serotype IV chimeric infectious virus (VP1 of strain ITA-4) (BK virus serotype IV); assay: cell-based or functional assay
[5] = target: BKV serotype III chimeric infectious virus (VP1 of isolate AS) (BK virus serotype III); assay: cell-based or functional assay
[6] = target: BKV serotype II chimeric infectious virus (VP1 of isolate SB) (BK virus serotype II); assay: cell-based or functional assay
[7] = target: T2, BKV serotype I infectious virus (VP1); assay: cell-based or functional assay; remark: listed apart in the source

B1: 2081-36-8 (antibody, V domains shown)
VH: QVQLQQSGAGLVRPGSSVKISCKTSGYAFSSYWMNWVKQRPGQGLEWIGQIYPGNGDTNYNGKFKGKATLTADKSSNTAYIQLNSLTSEDSAVYFCAREARQGYHYAMDYWGQGTSVTVSL
VL: EIVFTQSPTTMAAFPGEKITITCSASSMINSNYLHWYQQKPGFSPKVLIYRTSNLASGVPARFSGTGSGTSFSLTIGTMEAEDVATYYCQQGSNIFTFGSGTKLEIK
Q: What does the source list for B1?
A: EC50 (read off the curve) [1]: ~0.3 nM; neutralization EC50 [2]: 0.147 µg/mL; neutralization EC90 [2]: 0.909 µg/mL

B2: EBB-C1975-A7 (antibody, V domains shown)
VH: QVQLVESGGGLVQPGGSLRLSCAASGFTVSRNYMSWVRQAPGKGLEWVSGIYSGGSTYYADSVKGRFTISRDYSKNTLSLQMNTLRVEDTAVYFCAREDEFWSGYSAGVDWGQGTLVTVSS
VL: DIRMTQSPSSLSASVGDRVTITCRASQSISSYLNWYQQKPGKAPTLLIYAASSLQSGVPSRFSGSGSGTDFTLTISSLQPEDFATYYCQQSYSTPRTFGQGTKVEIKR
Q: Which results are given for B2?
A: binding result [3]: no binding; neutralization EC50 [4]: 0.28 µg/mL; neutralization EC90 [4]: 7.79 µg/mL; neutralization EC50 [5]: > 100 µg/mL; neutralization EC90 [5]: > 100 µg/mL; neutralization EC50 [6]: 0.11 µg/mL; neutralization EC90 [6]: 14.2 µg/mL; neutralization EC50 [7]: 0.024 µg/mL; neutralization EC90 [7]: 5.15 µg/mL
